Measured values reported in patent US12122830 (ABL BIO, dated 2024).

Assays:
[1] = target: T1, mouse ROR1 expressed on the cell surface (CHO-mouse ROR1) (mouse, UniProt Q9Z139 30-937); assay: flow cytometry on CHO cells transiently overexpressing mouse ROR1, FITC anti-human Fc detection, MFI ratio to 2nd Ab
T1 construct: whole, on cells; Temporarily transfected CHO cells
Description: For this experiment, the degree of binding of the anti-ROR1 antibody and ROR1 was measured by using FACSCalibur (BD Biosciences) device with the cell lines as follows, the cell lines artificially overexpressing the ROR1 protein by transfecting an ROR1 gene temporarily (CHO-human ROR1, CHO-human ROR2, CHO-mouse ROR1) or stably (MC38-human ROR1) (FIG. 5 and FIG. 7, respectively) or the cell lines expressing ROR1 (JeKo-1, Mino) (FIG. 6) or a cell line not expressing ROR1 (MCF7) (FIG. 6). […] JeKo-1, Mino, CHO-human ROR1, CHO-mouse ROR1 and MC38-human ROR1 are all cell lines expressing human ROR1 or mouse ROR1.
Specifically, after disassociating each cell line and washing in PBS, the number of cells was counted and set as 2×10^5 cells/200 µl PBS, and then each ROR1 monoclonal antibody in Example 3 was prepared in 10 µg/mL or as 5 fold-diluted from 10 µg/mL, and was reacted at 4° C. for 1 hour. After reaction, cells were washed in PBS and then the FITC-labeled constant region (Fc)-specific antibody (Goat anti-human IgG FITC conjugate, Fc specific, Sigma, F9512, concentration: 2.0 mg/ml) was suspended in 2 µl/1×10^5 cells/200 µl PBS, and it was reacted at 4° C. for 1 hours. The confirmation of expression degree of human ROR1, human ROR2 and mouse ROR1 that were temporarily overexpressed was analyzed by using a commercially available antibody for FACS analysis (anti-ROR1: R&D Systems, FAB2000G, anti-ROR2: R&D, FAB20641P). After reaction, cells were washed in PBS and decoded by using a FACSCalibur device. The negative control group (2nd Ab) was treated only with the FITC-labeled constant region (Fc)-specific antibody. The result for the peak shift in the experimental group treated with each ROR1 monoclonal antibody was compared to the result for the shift in the control group (Mean Fluorescence Intensity Ratio, MFI Ratio: MFI of anti-ROR1/MFI of 2nd Ab).

[2] = target: T2, recombinant mouse ROR1 protein (Acrobiosystems, RO1-M5221) (mouse, UniProt Q9Z139 30-406); assay: ELISA, recombinant mouse ROR1 protein coated at 1 µg/ml, IgG titrated, HRP anti-Fab detection
T2 construct: extracellular domain; Bought; also called mouse ROR1 antigen
T2 sequence (Q9Z139 30-406): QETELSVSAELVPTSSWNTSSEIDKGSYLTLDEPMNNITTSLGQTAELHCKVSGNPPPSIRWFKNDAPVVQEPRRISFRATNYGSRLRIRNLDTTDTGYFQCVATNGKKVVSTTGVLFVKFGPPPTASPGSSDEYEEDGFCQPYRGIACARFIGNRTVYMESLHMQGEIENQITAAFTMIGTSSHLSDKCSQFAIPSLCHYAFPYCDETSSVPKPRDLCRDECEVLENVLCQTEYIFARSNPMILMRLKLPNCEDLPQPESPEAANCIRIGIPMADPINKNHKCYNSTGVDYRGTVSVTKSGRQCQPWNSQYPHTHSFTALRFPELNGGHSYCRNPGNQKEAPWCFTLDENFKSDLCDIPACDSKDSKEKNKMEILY
Description: The anti-ROR1 antibody-antigen binding affinity was estimated by using an ELISA-based solution binding test. Specifically, a 96-well microtiter plate (Nunc-Immuno Plates, NUNC) was coated with the ROR1 protein at a concentration of 1 µg/ml in a PBS solution as described below at 4° C. for 16 hours, and non-specific binding sites were blocked with 3% BSA (bovine serum albumin) for 2 hours. For this, as the ROR1 protein, in case of human ROR1, ROR1-Fc of Example 1 or recombinant ROR1-His (Sino Biological, 13968-H08H) was used. The ROR1-His used for ELISA was a protein of sino biological company (13968-H08H) as described in the above sentence, and ROR1-His of Example 1 or recombinant mouse ROR1 protein was used (Acrobiosystems, RO1-M5221-100 µg).
Then, after adding the anti-ROR1 antibody prepared in Example 3 at the concentration described in FIG. 2 into the microtiter plate on a 96-well microtiter plate, the binding capacity was analyzed with ELISA as follows. Specifically, after constant temperature treatment for 2 hours, the plate was washed with PBS comprising 0.05% tween 20 5 times, and then a HRP-conjugated Fab multiclonal antibody reagent (Pierce, 31414) was diluted at 1:10,000 ratio, and was put into the washed microtiter plate, and it was incubated at 37° C. for 1 hour, and the ROR1 antibody bound to the plate was detected. After reaction, it was color-developed by using TMB (Tetramethylbenzidine, Sigma, T0440). The enzymatic reaction was stopped by 0.5 mol/L of sulfuric acid, and the absorbances at 450 nm and 650 nm were measured by using a micro plate reader device (molecular device) (450 nm-650 nm).

T1 sequence (Q9Z139 30-937): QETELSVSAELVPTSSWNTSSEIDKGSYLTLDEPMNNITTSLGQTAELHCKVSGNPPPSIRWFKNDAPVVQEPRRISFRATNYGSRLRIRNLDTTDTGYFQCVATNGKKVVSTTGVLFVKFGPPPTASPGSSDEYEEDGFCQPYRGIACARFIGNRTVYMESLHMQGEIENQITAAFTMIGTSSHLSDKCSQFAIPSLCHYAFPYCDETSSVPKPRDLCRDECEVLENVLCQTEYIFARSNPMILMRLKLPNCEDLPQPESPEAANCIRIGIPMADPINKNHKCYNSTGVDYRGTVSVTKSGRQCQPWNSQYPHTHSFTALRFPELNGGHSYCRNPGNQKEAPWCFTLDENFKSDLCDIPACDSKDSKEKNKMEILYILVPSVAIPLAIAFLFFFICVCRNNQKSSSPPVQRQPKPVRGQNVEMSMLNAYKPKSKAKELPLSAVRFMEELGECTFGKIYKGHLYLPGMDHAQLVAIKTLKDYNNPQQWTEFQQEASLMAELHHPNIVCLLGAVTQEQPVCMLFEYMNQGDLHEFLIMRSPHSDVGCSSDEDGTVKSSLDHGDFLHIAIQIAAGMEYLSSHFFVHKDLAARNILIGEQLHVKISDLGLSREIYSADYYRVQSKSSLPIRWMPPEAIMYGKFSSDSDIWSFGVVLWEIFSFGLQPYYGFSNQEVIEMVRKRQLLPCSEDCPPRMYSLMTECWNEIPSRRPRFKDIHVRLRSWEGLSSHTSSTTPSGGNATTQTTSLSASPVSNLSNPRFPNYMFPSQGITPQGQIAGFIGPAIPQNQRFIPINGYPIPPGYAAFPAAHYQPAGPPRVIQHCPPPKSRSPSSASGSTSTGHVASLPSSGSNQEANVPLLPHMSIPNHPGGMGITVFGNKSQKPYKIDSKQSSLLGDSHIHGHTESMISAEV

B1: A2F2 anti-ROR1 IgG antibody (antibody, V domains shown)
VH: EVQLLESGGGLVQPGGSLRLSCAASGFTFSDYYMSWVRQAPGKGLEWVSSISPDGSNTYYADSVKGRFTISRDNSKNTLYLQMNSLRAEDTAVYYCAKNLRAFDYWGQGTLVTVSS
VL: QSVLTQPPPASGTPGQRVTISCSGSSSNIGSNTVYWYQQLPGTAPKLLIYANSQRPSGVPDRFSGSKSGTSASLAISGLRSEDEADYYCGSWDYSLSGYVFGGGTKLTVLG
[1]
  binding result: binds
[2]
  binding result: binds

B2: A2F3 anti-ROR1 IgG antibody (antibody, V domains shown)
VH: EVQLLESGGGLVQPGGSLRLSCAASGFTFSSYDMSWVRQAPGKGLEWVSWISPGGGSKYYADSVKGRFTISRDNSKNTLYLQMNSLRAEDTAVYYCARVNGRFDYWGQGTLVTVSS
VL: QSVLTQPPSASGTPGQRVTISCSGSSSNIGNNNVSWYQQLPGTAPKLLIYADSHRPSGVPDRFSGSKSGTSASLAISGLRSEDEADYYCATWDYSLSGYVFGGGTKLTVLG
[1]
  binding result: binds
[2]
  binding result: binds

B3: D2B12 anti-ROR1 IgG antibody (antibody, V domains shown)
VH: EVQLLESGGGLVQPGGSLRLSCAASGFTFSNYDMSWVRQAPGKGLEWVSSISPSSGSSIYYADSVKGRFTISRDNSKNTLYLQMNSLRAEDTAVYYCAKAPGWCQAPSCYYDNAMDVWGQGTLVTVSS
VL: QSVLTQPPSASGTPGQRVTISCSGSSSNIGNNDVSWYQQLPGTAPKLLIYDDSQRPSGVPDRFSGSKSGTSASLAISGLRSEDEADYYCGAWDDSLSGYVFGGGTKLTVLG
[1]
  binding result: binds
[2]
  binding result: binds
